Data: patent publication US20140243227A1, “CULTURE MEDIA FOR STEM CELLS” (Koninklijke Nederlandse Akademie van Wetenschappen, priority 2011, published 2014)

Tests used:
pancreatic organoids = experiment: Effect of Noggin on gene expression of pancreatic organoids in expansion medium; conditions: EGFRAN vs EGFRA medium
human colon crypts = experiment: Screening of reagents for optimization of human intestinal organoids culture (plating efficiency); assay type: cell-based; conditions: First screening (WENR)
mouse organoids = experiment: M cell development in organoids stimulated with RANK ligand; assay type: cell-based
Procedure: FIG. 48: A) Mouse organoids were cultured in the presence of different doses recombinant mouse RANKL for 72 h. mRNA expression levels for RANK, the transciption factor SpiB and the M cell-specific markers GP2 and AnnexinV were determined by qPCR.

[1] = system: Barrett's Esophagus epithelium; experiment: Culture of Barrett's esophagus (BE) organoids; conditions: FGF10 added to HISC condition

B1: Noggin: BMP inhibitor (protein, UniProt Q13253 28-232, looked up)
Noggin: QHYLHIRPAPSDNLPLVDLIEHPDPIFDPKEKDLNETLLRSLLGGHYDPGFMATSPPEDRPGGGGGAAGGAEDLAELDQLLRQRPSGAMPSEIKGLEFSEGLAQGKKQRLSKKLRRKLQMWLWSQTFCPVLYAWNDLGSRFWPRYVKVGSCFSKRSCSVPEGMVCKPSKSVHLTVLRWRCQRRGGQRCGWIPIQYPIISECKCSC
Lgr5 expression relative to organoids cultured without Noggin (pancreatic organoids): 2 fold

B2: Cyr61: growth factor (Peprotech) (protein, UniProt O00622 25-381, looked up)
CCN family member 1: TCPAACHCPLEAPKCAPGVGLVRDGCGCCKVCAKQLNEDCSKTQPCDHTKGLECNFGASSTALKGICRAQSEGRPCEYNSRIYQNGESFQPNCKHQCTCIDGAVGCIPLCPQELSLPNLGCPNPRLVKVTGQCCEEWVCDEDSIKDPMEDQDGLLGKELGFDASEVELTRNNELIAVGKGSSLKRLPVFGMEPRILYNPLQGQKCIVQTTSWSQCSKTCGTGISTRVTNDNPECRLVKETRICEVRPCGQPVYSSLKKGKKCSKTKKSPEPVRFTYAGCLSVKKYRPKYCGSCVDGRCCTPQLTRTVKMRFRCEDGETFSKNVMMIQSCKCNYNCPHANEAAFPFYRLFNDIHKFRD
Activity (plating efficiency compared with control after 4 days culture) (human colon crypts): 0

B3: BDNF: brain-derived neurotrophic factor (protein, UniProt P23560 19-247, looked up)
Neurotrophic factor BDNF …: APMKEANIRGQGGLAYPGVRTHGTLESVNGPKAGSRGLTSLADTFEHVIEELLDEDQKVRPNEENNKDADLYTSRVMLSSQVPLEPPLLFLLEEYKNYLDAANMSMRVRRHSDPARRGELSVCDSISEWVTAADKKTAVDMSGGTVTVLEKVPVSKGQLKQYFYETKCNPMGYTKEGCRGIDKRHWNSQCRTTQSYVRALTMDSKKRIGWRFIRIDTSCVCTLTIKRGR
Activity (plating efficiency compared with control after 4 days culture) (human colon crypts): 0

B4: Follistatin: growth factor (Peprotech) (protein, UniProt P19883 30-344, looked up)
Follistatin: GNCWLRQAKNGRCQVLYKTELSKEECCSTGRLSTSWTEEDVNDNTLFKWMIFNGGAPNCIPCKETCENVDCGPGKKCRMNKKNKPRCVCAPDCSNITWKGPVCGLDGKTYRNECALLKARCKEQPELEVQYQGRCKKTCRDVFCPGSSTCVVDQTNNAYCVTCNRICPEPASSEQYLCGNDGVTYSSACHLRKATCLLGRSIGLAYEGKCIKAKSCEDIQCTGGKKCLWDFKVGRGRCSLCDELCPDSKSDEPVCASDNATYASECAMKEAACSSGVLLEVKHSGSCNSISEDTEEEEEDEDQDYSFPISSILEW
Activity (plating efficiency compared with control after 4 days culture) (human colon crypts): 0

B5: GDNF: growth factor (Peprotech) (protein, UniProt P39905 78-211, looked up)
Glial cell line-derived …: SPDKQMAVLPRRERNRQAAAANPENSRGKGRRGQRGKNRGCVLTAIHLNVTDLGLGYETKEELIFRYCSGSCDAAETTYDKILKNLSRNRRLVSDKVGQACCRPIAFDDDLSFLDDNLVYHILRKHSAKRCGCI
Activity (plating efficiency compared with control after 4 days culture) (human colon crypts): 0

B6: RANK ligand: RANK ligand (RANKL), recombinant (protein, UniProt O14788 140-317, looked up)
Tumor necrosis factor ligand …: IRAEKAMVDGSWLDLAKRSKLEAQPFAHLTINATDIPSGSHKVSLSSWYHDRGWAKISNMTFSNGKLIVNQDGFYYLYANICFRHHETSGDLATEYLQLMVYVTKTSIKIPSSHTLMKGGSTKYWSGNSEFHFYSINVGGFFKLRSGEEISIEVSNPSLLDPDQDATYFGAFKVRDID
Development of M cells (mouse organoids): can develop into M cells

B7: FGF10: human recombinant FGF10 (Peprotech) (protein, UniProt O15520 38-208, looked up)
Fibroblast growth factor 10: QALGQDMVSPEATNSSSSSFSSPSSAGRHVRSYNHLQGDVRWRKLFSFTKYFLKIEKNGKVSGTKKENCPYSILEITSVEIGVVAVKAINSNYYLAMNKKGKLYGSKEFNNDCKLKERIEENGYNTYASFNWQHNGRQMYVALNGKGAPRRGQKTRRKNTSAHFLPMVVHS
Culture duration of BE organoids [1]: > 3 months
Activity (plating efficiency compared with control after 4 days culture) (human colon crypts): 0
